{"source": "patent US20150086535A1", "target": "retinoblastoma protein (RB1) (human) (UniProt P06400)", "sequence (P06400 2-928 limits assumed)": "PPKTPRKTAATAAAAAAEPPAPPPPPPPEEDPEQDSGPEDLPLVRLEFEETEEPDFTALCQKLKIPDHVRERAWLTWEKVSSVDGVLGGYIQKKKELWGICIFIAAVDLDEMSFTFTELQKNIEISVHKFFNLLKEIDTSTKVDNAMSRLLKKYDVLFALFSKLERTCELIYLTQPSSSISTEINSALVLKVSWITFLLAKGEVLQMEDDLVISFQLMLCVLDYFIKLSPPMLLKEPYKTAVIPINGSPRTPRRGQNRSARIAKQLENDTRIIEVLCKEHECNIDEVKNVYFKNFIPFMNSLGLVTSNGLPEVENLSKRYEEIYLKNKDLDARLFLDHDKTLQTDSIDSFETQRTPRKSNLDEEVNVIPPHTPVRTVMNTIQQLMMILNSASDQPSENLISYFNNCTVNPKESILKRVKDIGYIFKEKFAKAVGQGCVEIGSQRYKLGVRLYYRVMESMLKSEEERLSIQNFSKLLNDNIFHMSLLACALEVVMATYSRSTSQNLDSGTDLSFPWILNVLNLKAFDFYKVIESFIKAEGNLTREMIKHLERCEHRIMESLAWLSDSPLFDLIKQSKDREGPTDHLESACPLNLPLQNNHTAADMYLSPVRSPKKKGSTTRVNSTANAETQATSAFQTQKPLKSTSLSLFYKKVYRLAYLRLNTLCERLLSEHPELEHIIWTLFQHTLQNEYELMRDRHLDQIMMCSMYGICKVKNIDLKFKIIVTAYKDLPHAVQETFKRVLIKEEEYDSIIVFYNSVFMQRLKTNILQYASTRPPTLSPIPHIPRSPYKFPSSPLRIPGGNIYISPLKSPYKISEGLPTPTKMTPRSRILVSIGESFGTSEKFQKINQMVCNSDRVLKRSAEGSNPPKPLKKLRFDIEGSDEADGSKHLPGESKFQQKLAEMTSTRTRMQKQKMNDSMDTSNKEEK", "test": "cell-based or functional assay", "data": [{"substance": "Truncated tumor-derived Merkel cell polyomavirus large T antigen LT339 (MCV339 strain, amino acid 1-455)", "values": [{"measurement": "survivin protein level in BJ fibroblasts (ECL and quantitative LICOR immunoblotting)", "value": 3, "unit": "fold"}]}]}
